Assay results from publication PMC11718230 (Nature Communications, 2025).

Biological target: T1, ATTO647N-STX17 SNARE domain (residues 161-231, E198C) (UniProt P56962 161-231, E198C, ATTO647N maleimide conjugated (cysteine introduced by E198C))
T1 sequence (looked up): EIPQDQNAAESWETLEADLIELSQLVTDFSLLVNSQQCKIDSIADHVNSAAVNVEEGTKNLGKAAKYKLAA
Test: FRET or BRET

Binder | binding result
ATTO550-VAMP7 SNARE domain (residues 123-187, E152C) (domain or fragment, UniProt P51809 123-187, looked up) LDKVMETQAQVDELKGIMVRNIDLVAQRGC(ATTO550 maleimide)RLELLIDKTENLVDSSVTFKTTSRNLARAMCMKNL | binds
ATTO550-VAMP8 SNARE domain (10-74, E39C) (domain or fragment, UniProt Q9BV40 10-74, looked up) NDRVRNLQSEVEGVKNIMTQNVERILARGC(ATTO550 maleimide)NLEHLRNKTEDLEATSEHFKTTSQKVARKFWWKNV | binds
